From the nanobody polyreactivity screen of Harvey et al. (2022)

Experiment: yeast display, Sf9 membrane polyspecificity reagent, FACS + sequencing; frameworks hold sequencing errors
Summary of the method: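 After 36–48 hours of galactose induction, yeast (Saccharomyces cerevisiae BJ5465) displaying a synthetic nanobody library were stained at 4 °C for 1 hour with 10% biotinylated, detergent-solubilized Sf9 membrane reagent. Streptavidin microbeads enriched the stained cells before FACS sorting into low and high (top ~1%) gates on anti-HA and streptavidin fluorescence. Each clone's polyreactivity label reflects its gate of origin.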

## QVQLVESGGGLVQAGGSIRLSCAASGRTLPEYVMGWYRQAPGKERELVAAITTAGSTNYADSVKGRFTISRDNAKNTVYLQINCLKPEDTAVYYCAGTTRSRGFRDIDYWGQGTQVTVSS
  polyreactivity (PSR sort gate): low polyreactivity

## QVQLVESGGGLVQAGGSLRLSCAASGRIFDYNAMGWYRQAPGKERELVAAISVSGGSTYYADSVKGRFTISRDNAKNTVYLQMNSLKPEDTAVYYCNAGYILDSFRYDHWGHGTQVTVSS
  polyreactivity (PSR sort gate): low polyreactivity

## QVQLVESGGGLVQAGGSLRLSCAASGNIFSSNAMGWYRQAPGKERELVAAITRSGGSTYYADSVKGRFTISRDNSKKTVYLLMNSLKPEDTAFYYCAARHYPRNSWGYDYWGQGSQVTVSS
  polyreactivity (PSR sort gate): high polyreactivity

## QVQLVESGGGLVQAGGSLRLSCAASGSIFWAYAMGWYRQAPGKERELVAAISRGGTTTYADSVKGRFTISRDNAKNTVYLQMNSLKPEDTAVYYCARRAVYSKRRYDYWGQGTQVTVSS
  polyreactivity (PSR sort gate): low polyreactivity

## QVQLVESGGGLVQAGGRLRLSCAASGGTFSSNAMGWYRQSPGKERELVAAITWSGGSTYYADSVKGRFTISRDNAKNTVYLQMNSLKPEDTAVYYCNARNQWRTVGKYDYWGQGTQVTVSS
  polyreactivity (PSR sort gate): low polyreactivity

## QVQLVESGGGLVQAGGSLRFSCAASGSTFPSYAMGWYRQAPGKERELVAAITNGGSTTYADSVKGRFTISRDNAKITDYLQMNSLKPEDTAVYYCAARYYYYYYIRRDYWGQGTQVTVSS
  polyreactivity (PSR sort gate): low polyreactivity

## QVQLVESGGGLVQAGGSLRLSCAASGRTFGYNAMGWYRQAPGKERELVASISYRGGSTYYADSVKGRFTISRDNAKNTVYLQMNSLKPEDTAVYYCNKYYVWREYYWGQGTQVTVSS
  polyreactivity (PSR sort gate): high polyreactivity

## QVQLVESGGGLVQAGGSLRLSCAASGNIFLSYAMGWYRQAPGKERDLVAGISASGGRTYYADSVKGRFTISRDNAKNTVYFQMNSLKPEDTALYYCNAGWGVVIRRYPTYDYWGQGTQVTVSS
  polyreactivity (PSR sort gate): high polyreactivity

## QVQLVESGGGLVQAGGSLRLSCAASGRIFYYNAMGWYRQAPGKERELVAAITSGGSTNYADSVKGRFSISRDNAKNTVYLQMNSLNPEDTAVYYCAADYYYYVAGVHYDYWGQGTQVTVSS
  polyreactivity (PSR sort gate): low polyreactivity

## QVQLVESGGGLVQAGGSLRLSCPASGFNFSHNAMGWYRQAPGKERELVAAITWSGAITSYADSVKGRFTISRDNAKNTVYLQMNILKPEDTAVYYCAKLWSWDLSRYGPRVDYWGQGTQVTVSS
  polyreactivity (PSR sort gate): low polyreactivity

## QVQLVESGGGLVQSGRSLRLICAASGSTSTQYAMGWYRQAPGKERELVAGITQSGGSTYYADSVKGRFTISRDNAKNTVYLQMNSLKPEDTAVYYCAAPPGYTGRYEYYYWGQGTQVTVSS
  polyreactivity (PSR sort gate): high polyreactivity

## QVQLVESGGGLVQAGGSLRLSCAASGRIFRANTMGWYRQAPGKERELVAVITASGGSTYYADSVKGRFTISRDNAKNTVYLQMNSLKPEDTAVYYCNRVPRTRLSGHDYWGQGTQVTVSS
  polyreactivity (PSR sort gate): high polyreactivity

## QVQLVESGGGLVQAGGSLRLSCAASGFIFVPYAMGWYRQAPGQERELVAAISSSGGSTNYTDSVKGRFTISRDNAKNSVYLQMNRLKPEDTAVYYCAAATWYVNPTHFNRYSEFYYWGQGTQVTVSS
  polyreactivity (PSR sort gate): low polyreactivity

## QVQLVESGGGLVQAGGSLRLSCAASGRIFGYYAMGWYRQAPGKERELVAAINSGSRTYYADSVKGRFTISRDNAKNTVYLQMNSLKPEDTAVYYCAARVRYPPYRSSDGQRGGYWGQGTQVTVSS
  polyreactivity (PSR sort gate): high polyreactivity

## QVQLQESGGGLVQAGGSLRLSCEASCYISDVNDMGWYRQAPGKEREFVAGFGYGGITNYADSVKGRFTISRDNAKNTVYLQMNSLKPKDSAVYNCAVHWGPDRGLYYWGQGTQVTVSS
  polyreactivity (PSR sort gate): high polyreactivity

## QVQLVETVGGLVQAGGSLRLSCAASGSIFTHYAMGWYREAPGKERELVAAITWSGGSTYYADSVKGRFTISRDNAKNTVYLQMNSLIPEDTAVYYCNVAWVGVSLVYGPFEYDYWGQGTQVTVSS
  polyreactivity (PSR sort gate): high polyreactivity

## QVQLVESGGGLVQAGGSLRLSCAASGSIIDYYARGWYRQAPGKERELVAAISDSGSTYYADSVKGRFTISRDNAKNTVYLQMNSLKPEDTAVYYCAAVLWSPYRSEPLDTYEYWGQGTQVNVSS
  polyreactivity (PSR sort gate): low polyreactivity

## QVQLVESGGGLVQAGGSLRLSCAASGSIFYVYAMGWYRQAPGKERELVAAITWIDGSTYYADSVKGRFTISRDNAKNTVYLQMNSLKPEDTAVYYCAAGGYFYSFYYWGQGTQVTVSS
  polyreactivity (PSR sort gate): low polyreactivity

## QDQLVESGGGLVQAGGSLRLSCAASGSTFPLYAMGSYREAPGKERELVADITVSGGSTYYADSVKGRFTISRDNAKNTVYLQMNSLNPEDTAVYYCNADDRSPFPDYWWYPYDYDYGGQGTQVTVSS
  polyreactivity (PSR sort gate): low polyreactivity

## QVQLVESGGGLVQAGGSLRLSCAASGFTFVSNDMGWYRQAPGKERELVAAIRYRGGDTYYADSVKGRFTISRDNAKNTVYLQMNRLKPEDTAVYYCAVDVATYTAGWYYHGYDYWGQGTQVTVSS
  polyreactivity (PSR sort gate): low polyreactivity

## QVQLVESGGGLVQAGGSLRLSCAASGRTFCSYAMGWYRQAPGKERELVAAIRYRGGSTYYADSVKGRFTISRDNAKNTVDLQMNSLKPEDTAVYYCATNTWYYYQRMYYWGQGTQVTVSS
  polyreactivity (PSR sort gate): high polyreactivity

## QDQLVESGGGLVQAGGSLSLICDASGRTFSTKFMGWYIQAAGKERQLVAAITTSSSRTYYADSVKGRFTISRDNANHTVYLLMNSLKPEDTAVYYCAARIHGSWSFDYWGQGTQVTLSS
  polyreactivity (PSR sort gate): low polyreactivity

## QVQLVEAGGGLVQAGGSLRLSCAASGSTFVKNAMGWYRQAPGKERELVAAISYRGGRTYYADSVKRRFTISRDNAKNTVYLQMNSLKPEDTAVYYCAADASHLTGYEYWGQGTQGTVSS
  polyreactivity (PSR sort gate): high polyreactivity

## QVQLVESGGGLVQAGGSLRLSCAATGRIFNYYAMGWYRQAPGKERELVAAISNGGSTYYADSVKGRFTISRDNAKNTVYLQMNSLKPEDTAVYYCNAAARNGYARRVYYWGQGTQVTVSS
  polyreactivity (PSR sort gate): high polyreactivity

## QVQLVESGVGLVQPGGILRLSCAASGIIFTQYAMGWNIQAPGKESELVAAMSGSGGSTYYADSVKGRFTISRDNAKNTVYLQMNSLKPEDTAVFYCAAGGVRGPGVESRMFYLGQGTQVTVSS
  polyreactivity (PSR sort gate): high polyreactivity

## QVQLVESGGGLVQAGGSLRLSCAASGYIFLRNSLGWYRQAPGKERELVAAIRRTGGSTYYADSVKGRFTISRDNAKNTVYLQMNSLKPEDTAVYYCAKRSYTGYEYWGQGTQVTVSS
  polyreactivity (PSR sort gate): low polyreactivity

## QVQLVQSGGGLVQAGGSLRLSCAASGSIINKYAMGWYRQAPGKERELVAAISFSGGSTYYADSVKGRFTISRDNAKITVYLQMNSLKPEDTAVYYCAAYHRPYQSYYWGKGTQVTVSS
  polyreactivity (PSR sort gate): high polyreactivity

## QVQLVESGGGLVQAGGSLRLSCAASGRTFDWYAMGWYRQAPGKERELVAVITGRGGSTYYADSVKGRFTISRDNAKNTVYLQMNSLKPEDTAVYYCAVDRLRYRLGFGFKFDYWGQGTQVTVSS
  polyreactivity (PSR sort gate): low polyreactivity

## QVQLVESGGGLVQAGGSLRFSCAASGINIWTNVMGWYIQAPRKESEFVAAISRSGGSTYYADSVKGSFTISRDNAKNTVYLQMISLKPEDTAVYYCAARWSYSVQKFDYWGQGTQLTVSS
  polyreactivity (PSR sort gate): high polyreactivity

## QVQLVESGGGLVQAGGSLRLSCAPSGSTFYKYVMGWYRQAPGKERELVAAISQGGSSTYYADSVKGRFTISRDNAKYTVYVLMNSLKPEDTAVYYCAAQYWWWSRFEYDSWGQGTQVTVSS
  polyreactivity (PSR sort gate): low polyreactivity

## QVQLVESGGGLVQAGGSLRLSCAASGGTFSLNAMGWYRQAPGKEREFVAGITWGGGRTYYADSVKGRFTISRDNAKNTVYLQMNSLKPEDTAVYYCAAGAWRGPYSGYYYWGQGTQVTVSS
  polyreactivity (PSR sort gate): low polyreactivity
